According to patent US20220396635A1 (UNIVERSIT T STUTTGART, published 2022):

B1: scDb/scFv-Fc (1-1)+2, trivalent bispecific anti-CEAxanti-CD3 (bispecific antibody)
chain 1: QVKLQQSGAELVRSGTSVKLSCTASGFNIKDSYMHWLRQGPEQGLEWIGWIDPENGDTEYAPKFQGKATFTTDTSSNTAYLQLSSLTSEDTAVYYCNEGTPTGPYYFDYWGQGTTVTVSSGGGGSDIELTQSPAIMSASPGEKVTITCSASSSVSYMHWFQQKPGTSPKLWIYSTSNLASGVPARFSGSGSGTSYSLTISRMEAEDAATYYCQQRSSYPLTFGAGTKLELKRGGGGSGGGGSGGGGSQVKLQQSGAELVRSGTSVKLSCTASGFNIKDSYMHWLRQGPEQGLEWIGWIDPENGDTEYAPKFQGKATFTTDTSSNTAYLQLSSLTSEDTAVYYCNEGTPTGPYYFDYWGQGTTVTVSSGGGGSDIELTQSPAIMSASPGEKVTITCSASSSVSYMHWFQQKPGTSPKLWIYSTSNLASGVPARFSGSGSGTSYSLTISRMEAEDAATYYCQQRSSYPLTFGAGTKLELKRAAADKTHTCPPCPAPPVAGPSVFLFPPKPKDTLMISRTPEVTCVVVDVSHEDPEVKFNWYVDGVEVHNAKTKPREEQYNSTYRVVSVLTVLHQDWLNGKEYKCKVSNKGLPSSIEKTISKAKGQPREPQVCTLPPSRDELTKNQVSLSCAVKGFYPSDIAVEWESNGQPENNYKTTPPVLDSDGSFFLVSKLTVDKSRWQQGNVFSCSVMHEALHNHYTQKSLSLSPGK
chain 2: DIQMTQSPSSLSASVGDRVTITCRASQDIRNYLNWYQQKPGKAPKLLIYYTSRLHSGVPSRFSGSGSGTDFTFTISSLQPEDIATYYCQQGNTLPWTFGQGTKLEIKRGGGGSGGGGSGGGGSQVQLVQSGAEVKKPGSSVKVSCKASGGTFSGYTMNWVRQAPGQGLEWMGLINPYKGVSTYNGKFKDRVTITADKSTSTAYMELSSLRSEDTAVYYCARSGYYGDSDWYFDVWGQGTLVTVSSAAADKTHTCPPCPAPPVAGPSVFLFPPKPKDTLMISRTPEVTCVVVDVSHEDPEVKFNWYVDGVEVHNAKTKPREEQYNSTYRVVSVLTVLHQDWLNGKEYKCKVSNKGLPSSIEKTISKAKGQPREPQVYTLPPCRDELTKNQVSLWCLVKGFYPSDIAVEWESNGQPENNYKTTPPVLDSDGSFFLYSKLTVDKSRWQQGNVFSCSVMHEALHNHYTQKSLSLSPGK
notes: also called scDbCEAxCEA-Fc(hole)Δab + scFvhuU3-Fc(knob)Δab
B2: scDb/Fab-Fc (1-1)+2, trivalent bispecific anti-EGFRxanti-CD3 (bispecific antibody)
chain: EVQLVESGGGLVQPGGSLRLSCAASGFSLTNYGVHWVRQAPGKGLEWLGVIWSGGNTDYNTPFTSRFTISRDNSKNTLYLQMNSLRAEDTAVYYCARALTYYDYEFAYWGQGTTVTVSSGGGGSDIQLTQSPSFLSASVGDRVTITCRASQSIGTNIHWYQQKPGKAPKLLIKYASESISGVPSRFSGSGSGTEFTLTISSLQPEDFATYYCQQNNNWPTTFGAGTKLEIKRGGGGSGGGGSGGGGSEVQLVESGGGLVQPGGSLRLSCAASGFSLTNYGVHWVRQAPGKGLEWLGVIWSGGNTDYNTPFTSRFTISRDNSKNTLYLQMNSLRAEDTAVYYCARALTYYDYEFAYWGQGTTVTVSSGGGGSDIQLTQSPSFLSASVGDRVTITCRASQSIGTNIHWYQQKPGKAPKLLIKYASESISGVPSRFSGSGSGTEFTLTISSLQPEDFATYYCQQNNNWPTTFGAGTKLEIKRAAADKTHTCPPCPAPPVAGPSVFLFPPKPKDTLMISRTPEVTCVVVDVSHEDPEVKFNWYVDGVEVHNAKTKPREEQYNSTYRVVSVLTVLHQDWLNGKEYKCKVSNKGLPSSIEKTISKAKGQPREPQVCTLPPSRDELTKNQVSLSCAVKGFYPSDIAVEWESNGQPENNYKTTPPVLDSDGSFFLVSKLTVDKSRWQQGNVFSCSVMHEALHNHYTQKSLSLSPGK
heavy: QVQLVQSGAEVKKPGSSVKVSCKASGGTFSGYTMNWVRQAPGQGLEWMGLINPYKGVSTYNGKFKDRVTITADKSTSTAYMELSSLRSEDTAVYYCARSGYYGDSDWYFDVWGQGTLVTVSSASTKGPSVFPLAPSSKSTSGGTAALGCLVKDYFPEPVTVSWNSGALTSGVHTFPAVLQSSGLYSLSSVVTVPSSSLGTQTYICNVNHKPSNTKVDKKVEPKSCDKTHTCPPCPAPPVAGPSVFLFPPKPKDTLMISRTPEVTCVVVDVSHEDPEVKFNWYVDGVEVHNAKTKPREEQYNSTYRVVSVLTVLHQDWLNGKEYKCKVSNKGLPSSIEKTISKAKGQPREPQVYTLPPCRDELTKNQVSLWCLVKGFYPSDIAVEWESNGQPENNYKTTPPVLDSDGSFFLYSKLTVDKSRWQQGNVFSCSVMHEALHNHYTQKSLSLSPGK
light: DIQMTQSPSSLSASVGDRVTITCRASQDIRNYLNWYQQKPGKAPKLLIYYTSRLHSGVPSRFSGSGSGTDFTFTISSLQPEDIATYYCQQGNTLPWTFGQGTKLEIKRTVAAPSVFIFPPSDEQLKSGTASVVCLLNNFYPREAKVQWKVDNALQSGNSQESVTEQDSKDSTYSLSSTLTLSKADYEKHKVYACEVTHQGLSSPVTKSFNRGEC
B3: scDb/Fab-Fc (1-1)+2, trivalent bispecific anti-CEAxanti-CD3 (bispecific antibody)
chain: B1 chain 1
heavy: B2 heavy
light: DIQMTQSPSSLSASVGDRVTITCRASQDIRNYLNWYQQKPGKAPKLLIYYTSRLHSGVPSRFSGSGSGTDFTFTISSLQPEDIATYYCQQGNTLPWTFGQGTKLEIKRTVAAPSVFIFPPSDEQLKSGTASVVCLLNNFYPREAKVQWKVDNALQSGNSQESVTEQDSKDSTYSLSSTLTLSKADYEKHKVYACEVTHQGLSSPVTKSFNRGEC
notes: also called scDbCEAxCEA-Fc(hole)Δab + FdhuU3-Fc(knob)Δab + VLhuU3-CLK
B4: scDb/scFv-Fc (1-1)+2, trivalent bispecific anti-EGFRxanti-CD3 (bispecific antibody)
chain 1: B2 chain
chain 2: B1 chain 2
notes: also called scDbhu225xhu225-Fc(hole)Δab + scFvhuU3-Fc(knob)Δab

Columns and labels:
CD3 = biological target: T1, CD3 (UniProt P07766 23-207); test: flow cytometry, serial dilution on Jurkat cells (CD3-expressing), PE anti-human Fc detection
T1 construct: whole, on cells; on cells it stands in the TCR/CD3 complex; also called CD3 on Jurkat cells
Description: (§1) Binding of trivalent, bispecific fusion proteins to CEA-expressing (LIM1215) and CD3-expressing (Jurkat) cell lines was analyzed by flow cytometry. 2×10⁵ cells/well were incubated with a serial dilution of trivalent, bispecific antibodies for 1 h at 4° C. followed by detection using a PE-conjugated anti-human Fc antibody (Jackson ImmunoResearch Laboratories Inc). […] Regarding the CEA-expressing cell line LIM1215, the trivalent, bispecific antibodies bound with EC₅₀ values in the nanomolar range (FIG. 16A) (Table 9).

CEA = biological target: T2, CEA (UniProt P06731 35-685); test: flow cytometry, serial dilution on LIM1215 cells (CEA-expressing), PE anti-human Fc detection
T2 construct: whole, on cells
T2 sequence (looked up): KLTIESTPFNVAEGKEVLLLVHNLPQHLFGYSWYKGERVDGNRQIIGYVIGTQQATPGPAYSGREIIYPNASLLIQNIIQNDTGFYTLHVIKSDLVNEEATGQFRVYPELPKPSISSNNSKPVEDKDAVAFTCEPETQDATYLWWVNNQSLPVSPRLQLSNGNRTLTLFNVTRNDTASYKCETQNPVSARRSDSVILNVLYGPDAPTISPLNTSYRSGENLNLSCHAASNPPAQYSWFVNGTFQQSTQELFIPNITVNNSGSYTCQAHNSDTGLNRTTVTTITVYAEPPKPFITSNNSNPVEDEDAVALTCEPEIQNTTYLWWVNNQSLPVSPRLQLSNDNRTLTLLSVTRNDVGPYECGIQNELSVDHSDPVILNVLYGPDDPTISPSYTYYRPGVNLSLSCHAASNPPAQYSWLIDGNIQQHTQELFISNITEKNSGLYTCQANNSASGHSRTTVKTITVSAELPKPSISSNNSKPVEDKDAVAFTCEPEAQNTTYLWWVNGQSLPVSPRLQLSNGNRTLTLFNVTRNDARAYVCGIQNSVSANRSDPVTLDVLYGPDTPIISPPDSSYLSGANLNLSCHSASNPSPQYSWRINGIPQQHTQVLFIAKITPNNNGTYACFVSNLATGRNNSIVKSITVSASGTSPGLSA
Description: as §1

EGFR [1] = biological target: T3, EGFR (UniProt P00533 25-1210, limits assumed); test: flow cytometry, serial dilution on FaDu cells (EGFR-expressing), PE anti-human Fc detection
T3 construct: whole, on cells; the cell lines are human tumor lines
Description: (§2) Binding analysis of the trivalent, bispecific antibodies was performed by flow cytometry using tumor cell lines with different EGFR-expression levels (FIG. 20) (Table 12). Adherent cells were washed with PBS and shortly trypsinized at 37° C. Trypsin was quenched with FCS-containing medium and removed by centrifugation (500×g, 5 min.). Target cells (FaDu, LIM1215, SKBR-3, T-47-D, MCF-7 and Jurkat cells) at 1×10⁵ cells/well were incubated with a serial dilution of trivalent, bispecific antibodies for 1 h at 4° C. After removing excess of recombinant protein by washing with PBA (PBS, 2% FBS, and 0.02% sodium azide), bound protein was detected using PE-conjugated anti-human Fc mAb (Jackson ImmunoResearch Laboratories Inc). Fluorescence was measured using MACSquant VYB (Miltenyi Biotec) and data were analyzed using FlowJo (Tree Star). Relative median fluorescence intensities (MFI) were calculated as followed: relative MFI=((MFIₛₐₘₚₗₑ-(MFIdetection-MFIcells))/MFIcells).

EGFR [2] = biological target: T3, EGFR; test: flow cytometry, serial dilution on MCF-7 cells (EGFR-expressing), PE anti-human Fc detection
Description: as §2

EGFR [3] = biological target: T3, EGFR; test: flow cytometry, serial dilution on SKBR-3 cells (EGFR-expressing), PE anti-human Fc detection
Description: as §2

EGFR [4] = biological target: T3, EGFR; test: flow cytometry, serial dilution on T-47-D cells (EGFR-expressing), PE anti-human Fc detection
Description: as §2

EGFR [5] = biological target: T3, EGFR; test: flow cytometry, serial dilution on LIM1215 cells (EGFR-expressing), PE anti-human Fc detection
Description: as §2

Binder	EC50 (CD3) [nM]	EC50 (CEA) [nM]	EC50 (EGFR [1]) [nM]	EC50 (EGFR [2]) [nM]	EC50 (EGFR [3]) [nM]	EC50 (EGFR [4]) [nM]	EC50 (EGFR [5]) [nM]
B1	2.8	2.4	–	–	–	–	–
B2	–	–	3.6	0.5	0.8	0.2	2.6
B3	0.8	8.5	–	–	–	–	–
B4	–	–	8.9	0.8	2.8	0.4	4
